Positions of bridges follow the written chain, without caps; N, C: chain ends. Non-standard residues stand in square brackets, D forms with d. No end group written: not given here. COCH2 = acetyl group that carries the bridge; hCys = N[C@@H](CCS)C(=O)O
biological target: Recombinant Human FGFR1 alpha (IIIc) Fc Chimera Protein, CF (R&D systems, 658-FR-050) (human) (UniProt P11362); experiment: SPR grade, peptide 10 nmol/L over FGFR1-Fc; conditions: scale: moleculesofcyclicpeptide/onemoleculeoffgfr
Sequence (P11362 22-376, change not shown): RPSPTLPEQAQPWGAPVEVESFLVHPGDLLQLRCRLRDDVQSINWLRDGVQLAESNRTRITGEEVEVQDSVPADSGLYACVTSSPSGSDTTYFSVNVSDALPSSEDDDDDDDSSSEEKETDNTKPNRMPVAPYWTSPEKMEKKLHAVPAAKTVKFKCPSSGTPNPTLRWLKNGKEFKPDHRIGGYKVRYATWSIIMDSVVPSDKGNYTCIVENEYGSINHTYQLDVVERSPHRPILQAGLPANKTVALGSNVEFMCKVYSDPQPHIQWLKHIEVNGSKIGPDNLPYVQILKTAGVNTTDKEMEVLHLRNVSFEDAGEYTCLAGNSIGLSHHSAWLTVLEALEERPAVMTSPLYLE

| Molecule | binding amount (SPR, molecules of cyclic peptide bound per one molecule of FGFR at 10 nmol/L peptide) |
| --- | --- |
| A[hCys]VWTFDRHAQEISQALHK(COCH2)VKKK (thioether 2-19) [cyclic peptide SEQ ID NO: 327] | > 0.7 |

biological target: T1, Recombinant Human FGFR1 alpha (IIIc) Fc Chimera Protein (Homo sapiens, UniProt P11362); experiment: ELISA binding affinity of enzymatically synthesized peptide to FGFR; conditions: ELISA luminescence signal at 10 nmol/L peptide, SEQ ID NO: 239 standardized to 1; enzyme synthesis product
T1 construct: purchased R&D systems 658-FR-050
T1 sequence (P11362 with tags, fused parts or gaps limits assumed): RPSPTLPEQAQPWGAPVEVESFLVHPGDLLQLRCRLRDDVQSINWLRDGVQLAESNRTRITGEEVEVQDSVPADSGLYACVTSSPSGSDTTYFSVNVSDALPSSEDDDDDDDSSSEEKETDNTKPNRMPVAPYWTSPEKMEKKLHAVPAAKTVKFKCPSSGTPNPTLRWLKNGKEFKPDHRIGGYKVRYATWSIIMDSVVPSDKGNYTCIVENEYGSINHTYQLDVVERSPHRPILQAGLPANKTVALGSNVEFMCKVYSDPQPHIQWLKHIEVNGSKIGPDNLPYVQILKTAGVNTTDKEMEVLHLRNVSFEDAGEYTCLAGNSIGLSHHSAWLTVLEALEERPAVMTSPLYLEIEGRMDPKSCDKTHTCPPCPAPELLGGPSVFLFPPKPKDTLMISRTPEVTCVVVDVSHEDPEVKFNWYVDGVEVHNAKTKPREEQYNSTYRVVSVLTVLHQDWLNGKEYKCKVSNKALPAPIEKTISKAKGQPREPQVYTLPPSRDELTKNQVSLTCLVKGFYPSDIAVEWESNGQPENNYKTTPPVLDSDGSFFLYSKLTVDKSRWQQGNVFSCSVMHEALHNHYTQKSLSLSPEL
Procedure, shortened: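 Cell-free PUREfrex-translated cyclic peptides (Myc/HiBiT-tagged, quantified by HiBiT luminescence) bound 3 h at room temperature to immobilized FGFR1α(IIIc)-Fc, detected with anti-Myc and chemiluminescence. FGFR-specific signal at 10 nmol/L normalized to a reference cyclic peptide and graded A–D.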

| Molecule | Evaluation result of binding affinity to FGFR |
| --- | --- |
| 272 (QCDWVIWQWDPPYIKV; Description of Artificial Sequence: Cyclic peptide) [compound 272] | C (0.1 or more and less than 0.5) |
| 273 (PCWWATQIWTYPFYKV; Description of Artificial Sequence: Cyclic peptide) [compound 273] | C (0.1 or more and less than 0.5) |
| 274 (FCIYTFSRESGLLWKQ; Description of Artificial Sequence: Cyclic peptide) [compound 274] | A (0.7 or more) |
| 275 (LCPLYAWQTLYQYGWK(COCH2)V; thioether 2-16 (inferred)) [compound 275] | A (0.7 or more) |
| 276 (ECIYTFDPQRHPVLVK(COCH2)V; thioether 2-16 (inferred)) [compound 276] | C (0.1 or more and less than 0.5) |
| 277 (TCPVWAWHQAFQFGWK(COCH2)I; thioether 2-16 (inferred)) [compound 277] | C (0.1 or more and less than 0.5) |
| 278 (ICPLYGDQGQAWQYGWK(COCH2)L; thioether 2-17 (inferred)) [compound 278] | A (0.7 or more) |
| 279 (QCLQKVGYLLWQFGWSK(COCH2)I; thioether 2-17 (inferred)) [compound 279] | C (0.1 or more and less than 0.5) |
| 280 (PCPVWGDYGAVHQYGWK(COCH2)V; thioether 2-17 (inferred)) [compound 280] | A (0.7 or more) |
| 281 (YCVYTFDAQDVWRPLRK(COCH2)V; thioether 2-17 (inferred)) [compound 281] | C (0.1 or more and less than 0.5) |
| 282 (FCIYSWNWNNLVRPEFRK(COCH2)V; thioether 2-18 (inferred)) [compound 282] | C (0.1 or more and less than 0.5) |
| 283 (WCWLIPTPWPGVYQFSPK(COCH2)A; thioether 2-18 (inferred)) [compound 283] | B (0.5 or more and less than 0.7) |
| 284 (QCRITLLTIYQWKYAWHK(COCH2)E; thioether 2-18 (inferred)) [compound 284] | C (0.1 or more and less than 0.5) |
| 285 (QCSWWYVQVWTYPFHVLK(COCH2)G; thioether 2-18 (inferred)) [compound 285] | C (0.1 or more and less than 0.5) |
| 286 (HCLWSLHSFYTFKAWAK(COCH2)I; thioether 2-17 (inferred)) [compound 286] | C (0.1 or more and less than 0.5) |
| 287 (YCPFEVYSWWVPKWHK(COCH2)I; thioether 2-16 (inferred)) [compound 287] | C (0.1 or more and less than 0.5) |
| 288 (LCHLVFQFNPDTGKLWPK(COCH2)Y; thioether 2-18 (inferred)) [compound 288] | C (0.1 or more and less than 0.5) |
| 289 (DCPWSVFSWYIPIYNK(COCH2)I; thioether 2-16 (inferred)) [compound 289] | C (0.1 or more and less than 0.5) |
| 290 (FCVYTFDANAQSLDDALNK(COCH2)Q; thioether 2-19 (inferred)) [compound 290] | A (0.7 or more) |
| 291 (ICVYTFDAHAHSLDDALTK(COCH2)I; thioether 2-19 (inferred)) [compound 291] | A (0.7 or more) |
| 292 (ICVYTFDAHAHSLDAALNKI; not fully specified (residue 19, bridges)) [compound 292] | A (0.7 or more) |
| 293 (ICVYTFDAHAHSLDAALTK(COCH2)V; thioether 2-19 (inferred)) [compound 293] | A (0.7 or more) |
| 294 (ICVYTFDAHAHSLDAALTK(COCH2)Q; thioether 2-19 (inferred)) [compound 294] | A (0.7 or more) |
| 295 (ICVYTFDAHAHSLDAALNKV; not fully specified (residue 19, bridges)) [compound 295] | A (0.7 or more) |
| 296 (ICVYTFDAHAHSLDAALNKQ; not fully specified (residue 19, bridges)) [compound 296] | A (0.7 or more) |
| 297 (ICVYTFDAHAHSLHDALNK(COCH2)I; thioether 2-19 (inferred)) [compound 297] | A (0.7 or more) |
| 298 (ICVYTFDAHAHSLHDALTK(COCH2)V; thioether 2-19 (inferred)) [compound 298] | A (0.7 or more) |
| 299 (ICVYTFDAHAHSLHDALTK(COCH2)Q; thioether 2-19 (inferred)) [compound 299] | A (0.7 or more) |

| Molecule | Evaluation result of binding affinity to FGFR |
| --- | --- |
| 300 (ICVYTFDAHAHSLHDALNK(COCH2)V; thioether 2-19 (inferred)) [compound 300] | A (0.7 or more) |
| 301 (ICVYTFDAHAHSLHDALNK(COCH2)Q; thioether 2-19 (inferred)) [compound 301] | A (0.7 or more) |
| 302 (ICVYTFDAHAHSLDDALNK(COCH2)I; thioether 2-19 (inferred)) [compound 302] | A (0.7 or more) |
| 303 (ICVYTFDAHAHSLDDALTK(COCH2)V; thioether 2-19 (inferred)) [compound 303] | A (0.7 or more) |
| 304 (ICVYTFDAHAHSLDDALTK(COCH2)Q; thioether 2-19 (inferred)) [compound 304] | A (0.7 or more) |
| 305 (ICVYTFDAHAHSLDDALNK(COCH2)V; thioether 2-19 (inferred)) [compound 305] | A (0.7 or more) |
| 306 (ICVYTFDAHAHSLDDALNK(COCH2)Q; thioether 2-19 (inferred)) [compound 306] | A (0.7 or more) |
| 307 (FCVYTFDAHAHSLDAALTK(COCH2)I; thioether 2-19 (inferred)) [compound 307] | A (0.7 or more) |
| 308 (FCVYTFDAHAHSLHDALTK(COCH2)I; thioether 2-19 (inferred)) [compound 308] | A (0.7 or more) |
| 309 (FCVYTFDAHAHSLDDALTK(COCH2)I; thioether 2-19 (inferred)) [compound 309] | A (0.7 or more) |
| 310 (ICVYTFDAHAQSLDAALTK(COCH2)I; thioether 2-19 (inferred)) [compound 310] | A (0.7 or more) |
| 311 (ICVYTFDAHAQSLHDALTK(COCH2)I; thioether 2-19 (inferred)) [compound 311] | A (0.7 or more) |
| 312 (ICVYTFDAHAQSLDDALTK(COCH2)I; thioether 2-19 (inferred)) [compound 312] | A (0.7 or more) |
| 313 (FCVYTFDAHAHSLDAALNK(COCH2)I; thioether 2-19 (inferred)) [compound 313] | A (0.7 or more) |
| 314 (FCVYTFDAHAHSLHDALNK(COCH2)I; thioether 2-19 (inferred)) [compound 314] | A (0.7 or more) |
| 315 (FCVYTFDAHAHSLDDALNK(COCH2)I; thioether 2-19 (inferred)) [compound 315] | A (0.7 or more) |
| 316 (FCVYTFDAHAHSLDAALTK(COCH2)Q; thioether 2-19 (inferred)) [compound 316] | A (0.7 or more) |
| 317 (FCVYTFDAHAHSLHDALTK(COCH2)Q; thioether 2-19 (inferred)) [compound 317] | A (0.7 or more) |
| 318 (FCVYTFDAHAHSLDDALTK(COCH2)Q; thioether 2-19 (inferred)) [compound 318] | A (0.7 or more) |
| 319 (FCVYTFDAHAHSLDAALNK(COCH2)Q; thioether 2-19 (inferred)) [compound 319] | A (0.7 or more) |
| 320 (FCVYTFDAHAHSLHDALNK(COCH2)Q; thioether 2-19 (inferred)) [compound 320] | A (0.7 or more) |
| 321 (FCVYTFDAHAHSLDDALNK(COCH2)Q; thioether 2-19 (inferred)) [compound 321] | A (0.7 or more) |
| 322 (CVYTFDAHAHSLDAALTK(COCH2)I; thioether 1-18 (inferred)) [compound 322] | A (0.7 or more) |
| 323 (ICVYTFDANAHSLDAALTK(COCH2)I; thioether 2-19 (inferred)) [compound 323] | A (0.7 or more) |
| 324 (ICVYTFDANAHSLHDALTK(COCH2)I; thioether 2-19 (inferred)) [compound 324] | A (0.7 or more) |
| 325 (ICVYTFDANAHSLDDALTK(COCH2)I; thioether 2-19 (inferred)) [compound 325] | A (0.7 or more) |
| 326 (IK(COCH2)VYTFDAHAHSLDAALTCI; thioether 2-19 (inferred)) [compound 326] | B (0.5 or more and less than 0.7) |
